Measured values: paper PMC4837377 (Scientific Reports, 2016)

Target: the molecule itself
Assay: SEC-MALS

Protein	stoichiometry N
PA-PB1-PB2(1-116) truncated heterotrimer (construct 15) (complex, copies: + +) chain 1: […] chain 2: MDVNPTLLFLKVPAQNAISTTFPYTGDPPYSHGTGTGYTMDTVNRTHQYSEKGKWTTNTETGAAQLNPIDGPLPEDNEPSGYAQTDCVLEAMAFLEESHPGIFENSCLETMEVVQQTRVDRLTQGRQTYDWTLNRNQPAATALANTIEVFRSNGLIANESGRLIDFLKDVIESMDKEEMEITTHFQRKRRVRDNMTKKMVTQRTIGKKKQRVNKRSYLIRALTLNTMTKDAERGKLKRRAIATPGMQIRGFVYFVETLARSICEKLEQSGLPVGGNEKKAKLANVVRKMMTNSQDTELSFTITGDNTKWNENQNPRMFLAMITYITKNQPEWFRNILSIAPIMFSNKMARLGKGYMFESKRMKLRTQIPAEMLASIDLKYFNESTRKKIEKIRPLLIDGTASLSPGMMMGMFNMLSTVLGVSILNLGQKKYTKTTYWWDGLQSSDDFALIVNAPNHEGIQAGVDRFYRTCKLVGINMSKKKSYINRTGTFEFTSFFYRYGFVANFSMELPSFGVSGINESADMSIGVTVIKNNMINNDLGPATAQMALQLFIKDYRYTYRCHRGDTQIQTRRSFELKKLWEQTRSKAGLLVSDGGPNLYNIRNLHIPEVCLKWELMDEDYQGRLCNPLNPFVSHKEIESVNNAVVMPAHGPAKSMEYDAVATTHSWIPKRNRSILNTSQRGILEDEQMYQKCCNLFEKFFPSSSYRRPVGISSMVEAMVSRARIDARIDFESGRIKKEEFSEIMKICSTIEELRRQK chain 3: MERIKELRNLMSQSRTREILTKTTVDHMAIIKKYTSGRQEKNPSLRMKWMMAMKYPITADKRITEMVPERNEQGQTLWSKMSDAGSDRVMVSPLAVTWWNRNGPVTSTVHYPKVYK	2
PA-PB1-PB2(1-250) truncated heterotrimer (construct 16) (complex, copies: + +) chain 1: […] chain 2: MDVNPTLLFLKVPAQNAISTTFPYTGDPPYSHGTGTGYTMDTVNRTHQYSEKGKWTTNTETGAAQLNPIDGPLPEDNEPSGYAQTDCVLEAMAFLEESHPGIFENSCLETMEVVQQTRVDRLTQGRQTYDWTLNRNQPAATALANTIEVFRSNGLIANESGRLIDFLKDVIESMDKEEMEITTHFQRKRRVRDNMTKKMVTQRTIGKKKQRVNKRSYLIRALTLNTMTKDAERGKLKRRAIATPGMQIRGFVYFVETLARSICEKLEQSGLPVGGNEKKAKLANVVRKMMTNSQDTELSFTITGDNTKWNENQNPRMFLAMITYITKNQPEWFRNILSIAPIMFSNKMARLGKGYMFESKRMKLRTQIPAEMLASIDLKYFNESTRKKIEKIRPLLIDGTASLSPGMMMGMFNMLSTVLGVSILNLGQKKYTKTTYWWDGLQSSDDFALIVNAPNHEGIQAGVDRFYRTCKLVGINMSKKKSYINRTGTFEFTSFFYRYGFVANFSMELPSFGVSGINESADMSIGVTVIKNNMINNDLGPATAQMALQLFIKDYRYTYRCHRGDTQIQTRRSFELKKLWEQTRSKAGLLVSDGGPNLYNIRNLHIPEVCLKWELMDEDYQGRLCNPLNPFVSHKEIESVNNAVVMPAHGPAKSMEYDAVATTHSWIPKRNRSILNTSQRGILEDEQMYQKCCNLFEKFFPSSSYRRPVGISSMVEAMVSRARIDARIDFESGRIKKEEFSEIMKICSTIEELRRQK chain 3: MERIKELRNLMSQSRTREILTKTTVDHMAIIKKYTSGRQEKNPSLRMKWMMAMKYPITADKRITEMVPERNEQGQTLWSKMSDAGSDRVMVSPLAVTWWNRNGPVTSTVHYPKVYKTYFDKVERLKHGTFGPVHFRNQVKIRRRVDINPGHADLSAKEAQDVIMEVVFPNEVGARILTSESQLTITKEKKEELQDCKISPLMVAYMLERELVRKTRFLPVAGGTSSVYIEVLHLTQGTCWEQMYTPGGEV	2
